Data on 20 sequences can be found in the DeepSol protein solubility set.

This series is described as follows: soluble on expression in E. coli; label from the status in PepcDB or PDB records.
For “MPKDNTWYTGAKLGWSQYSRENQLGAGAFGGYQVNPYVGFEMGYDWLGRMPRKAQGVQLTAKLGYPKLGTDDLDIYTRLGGMVWRADTSDKDGNGYISAAEASVSPVFAGGVEYVIRRRITPEIATRLEYQWTNNASDNGMLSLGVSYRFGQGEAA”, the “soluble on expression in E. coli” value is recorded as “soluble”. With “MPKKNNTKRAPPSVPKPSGPPPRLLQLTSSDGHLLQGDIRALLLSSTLAATIRELGYDKEYCAELKPVPVNNVVGFTLKLLIEWCDKHKEDDPAIALAEKDKKNICIPSWDRHFLSRLPMSNLFDLITAAYHLDVTGLINYGCKTVANSAKGKNAEEMRELFGIPEPWEQPSTSTATWDD”, the “soluble on expression in E. coli” value is listed as “not soluble”.

For the sequence “MPKKVVPEEARRRRRPTRQGAVLSEGLIVRTALRMLREHGTGGLTARRLGAALGADPSTLYRYFAGMDDLARAVGNELMGQALDGWTAQGDWRADLRSLGLALHSSYLAHPQAAVLTASRVSGRPREIAVDEAILGLLRGAGLTDRAAVRFYHAFIDLALAFAALDAGSLALPEEARRSDEDMWGTTYARLPAETHPNIAATAERLAARMPHSAYPVVLDTLLDGIAAELTGTAPEM”, the “soluble on expression in E. coli” value is reported as “not soluble”. For “MPKLSIIIPAYNNAHLLPETLDSIFSQDCEPFELIVVDDGSTDNTRDVVEGYGRGIVYLWQENSGGCSKPRNVGIRHATGEYIAMFDSDDIMKPGKVRSQMDFLDRNPDVDFVFTDFCDFRGAEVLASHITTCPIFNSLPKQKVGEDAYVISSTAAYETLLVENFIGGSAMMFRKSLFNEAGPFDETLEVSEDIDFTLRVARTHALGFINRIGHHRRLHDGNMTSKAEKILTRSLRVFGGHLSAPKSSKAQQRLIDKVAGLHGALAYHYRENARYGEALAEYRASLSLRPACLGTYKAMAKLAVMALTSGGKLEHHHHHH” the value was “soluble”; for “MPKVEIAPSEIKIPDNVLKAKLGFGGAEEIPEEFRKTVNRAYEELLDAAKPVVLWRDFEVDGSLSFDDMRLTGELATKHLSGSKIITVFLATLGKKVDEKIEEYFRKGEDLLAFFIDGIASEMVEYALRKVDAELRMKRSNLEGSFRISPGYGDLPLSLNKKIAEIFKEEVDVNVIEDSYVLVPRKTITAFVGWREKNEKQT”, “not soluble”. Turning to “MPLAVLERDGSFLGVLTPHSIVEVLLERERRLLEDARKINAEIRREADKAIEQLDIKAHYDTVTGLPNRQLFCDRLLQALAAHERDGNPVVLLFLDVDNFKSINDSLGHLVGDRLLRATAERIRTAVRDGDTVARIGGDEFTILLNGAKDTLNGALVAQKILDGLAQPFVFGAQQIVISVSIGIAVSPADGETMEQLLRNADTAMYHAKSRGKNNYQFFSPELNVQAYRRQEIERNLRCALLQGELGLRYAPRVDLRSGRIVALEVCPFWLSSELGDVPPDDFIPVAEETGLIVQIGIWAFRTACAHAAVWRTQGLADRCLSFRLSQRELDDPQFGDRIMSLLDGCGLEPENLQFELSERMLMTHAAHTLAVLQELSNRGIRFSVGDFGTGNASLRRLRRFPIDELKIDLSSVRDIEPDSDDAAVITAMIAMAKSLRMDVVAVGVETPEHVAFLLERGCRHGQGRLIGARLPPERIAALLAGDAVDLFVALEHHHHHH”, the “soluble on expression in E. coli” value is “not soluble”. For “MPLCLKINKKHGEQTRRILIENNLLNKDYKITSEGNYLYLPIKDVDEDILKSILNIEFELVDKELEEKKIIKKPSFREIISKKYRKEIDEGLISLSYDVVGDLVILQISDEVDEKIRKEIGELAYKLIPCKGVFRRKSEVKGEFRVRELEHLAGENRTLTIHKENGYRLWVDIAKVYFSPRLGGERARIMKKVSLNDVVVDMFAGVGPFSIACKNAKKIYAIDINPHAIELLKKNIKLNKLEHKIIPILSDVREVDVKGNRVIMNLPKFAHKFIDKALDIVEEGGVIHYYTIGKDFDKAIKLFEKKCDCEVLEKRIVKSYAPREYILALDFKINKK” the value was “soluble”; for “MPLFGSIFSPKKTPPRKSASLSNLHSLDRSTRELELGLDYGTPTMNLAGQSLKFENGQWVADSVISGGVDRRETQRLRKRNQQLEEENNLLRLKVDILLDMLSETTAESHLKDKELDELKVTNRRRK”, “not soluble”.

Regarding “MPLNRNHSELRSGKVNLKNGDPFTIALFGVDSDEKRKQQGGGERSDTIMVLSINPKEKKTELVSIPRDTKAEIAGRGTEEKINHAYAYGGPNMAVKTIEKLMNVPIDHYATIDMDGLHDMIDTLGGVDVVSNSTFTMGANHFVKGEKTHVDGDAAMDFIRSRKEDGAGGDFGRQERQQLILEAMADKMTSASSITHFNTLMNQIQKNVKTDLKLGDLNTIRTKYKDANDQVNRHQLEGEGGIQNDGLYYFIPSDASKNENTQLLRDNLNLLEHHHHHH”, the “soluble on expression in E. coli” value is listed as “soluble”. For the sequence “MPLRVDTLTWLSTQAAPGRVMVWPAVRPGICPGPDVWRIPLGPLPHEFRGWIAPCRPRLGASEAGDWLRRPSEGALPGPYIALRSIPKLPPPEDISGILKELQQLAKELRQKRLSLGYSQADVGIAVGALFGKVLSQTTICRFEAQQLSVANMWKLRPLLKKWLKEVEAENLLGLCKMEMILQQSGKWRRASRERRIGNSLEKFFQRCPKPTPQQISHIAGCLQLQKDVVRVWFYNRSKMGSRPTNDASPREIVGTAGPPCPGAPVCFHLGLGLPVDIPHYTRLYSAGVAHSSAPATTLGLLRF”, the “soluble on expression in E. coli” value is “soluble”. For “MPLTFAHSFADAVPSLSVPWRAEQWPDPRIIVFNHELGQELGIDEASLLSNITQQGHAQAYSGHQFGQFNPLLGDGRALVLGDCAQTNAPHGQFEISLKGSGPTPFARRGDGRATLGPMLREYLISEALHGLGIPTTRSLAVITTGTDVQRERLLPGAVVVRVAQNHLRVGSVQCAAMRDDDSLAALVRYALSSHEDGVSDAEAAGLLLRRVSTSQAKLVAQWMRFGFVHGVMNTDNVTLSGQTIDFGPCAFIDSFHPQAVFSSIDSHGRYSFGRQPSIMGWNIARLAEALLPLMSIDEARNIVHEFPDMYRRSWLDEMADAVGISPDDDHAAGVLDDLVALLDVHRPDYAQFMRSLSDGTTVSLFPWAQQWEAEVSSLRVAAPRNPVYVPRNYLVEDALEHAMNADMSVFSLLVEAGKNPYLREKRFEKLENPAPETWQDYVTYCGT” the value was “not soluble”. As to “MPMINALGLLEVDGMVAAIDAADAMLKAANVRLLSHEVLDPGRLTLVVEGDLAACRAALDAGCAAAMRTGRVISRKEIGRPDDDTQWLVTGFNRQPKQPVREPDAPVIVAESADELLALLTSVRQGMTAGEVAAHFGWPLEKARNALEQLFSAGTLRKRSSRYRLKPH”, the “soluble on expression in E. coli” value is given as “not soluble”. As to “MPMNNFLDEFNLFDSIITMMKNDPCCVEDYEPIVENLNRIFQRTFNDEEHRKSMANSQLFWERLRDTLEAMLLPASLNENSSIPYTRTVRGLILMMRNLAAENQEIPQKLLLQNLVIRGFLHATSEYVVDTPLIKHLYIACLTCLFNIQQNYSTVDMTTFPALLQFLQYPYGIKLEDGEEEEHFWLPYLFLFKTYLNNDEFSNEFFRDNDTPQKDYYCVRDRIFFDIVTAKFIQDQENSFLIEKGRNYLDDSKLEITSIDLSVLECISKSLTTASFGKYLNGLEERQPGKFTTLLQILQLVVTSKEDWNTYELTAIMSWCYPILQRLACKDIPAFFNKSCNDYAPSVAIQLHSTLLSCLDIISDLCKFNHVRKFLISYDSVKILVSLLDTFQKNLLRINFLKGNGDTVNEIKITDHEGNKIEDRLLIFNRVNTNESFIRADNFPHCKLVIIEILASLVYAHPEIQDQIRELGGLALILSNCVIDDNDPFIKERSIVCLKFLLKNNAKNQEYVKKMEAQDVVQDDALSKAGFEISVEKGGKVRLVSKEEDPGNENSEIISIDED”, the “soluble on expression in E. coli” value is “not soluble”. To “MPPKGGGAGSKKQQGGKKCKDDEADFDAQLAKALQEVQVSKDKQGGDANKKAQKGKQRTSKQESNGEANDNNDASDPKVVSTADHPDNPYPQVAEGMKRQTWPEPTIPVSQQFARGNFPVGIICEHPGEVNAYRYSSEEKRAMEHATEEQVQDLRCAAEVHRQVRRYAQSFIKPGISLLSMTDRIEKKLEELIEKDGLNRGQAFPTGCSLNHVAAHYTPNTGDKCVLMYDDVMKVDFGTQINGRIIDCAWTVAFKDEYEPLLTAVKEATYEGVKQAGIDVRLCDVGAAIQEVMESYEVELNGKVYPVKSIRNLSGHTIAPYVIHGGKSVPIVRGGEATRMEEGELFAIETFGSTGRGFVQEDMECSHYMMVPGGEKTQVRSDKAQQLLRHIHKTYNTLAFARKWLDRDGHDRHLLNLNQLVEAGAVNKYPPLCDIRGCYTAQLEHTLILKPTAKEILSKGDDY” belongs “soluble”; to “MPPKKAPAKKLHELAAEVRVGHKINDISKKTFIVGKQFATGGFGRIHTCTEEGKSQQMVMKIEPSTNGPLLTEVVVFNRILKKELIESYKKKKKISWIGLPYLIANGYFTYESEKMRYMIIPKYATSLEAVRETNGGTLAMKDSLTVASCILDALEYLHESDYAHADVKAANILLEKQGVYSTAVLVDFGLAHRTTNNVDKPDKKRAHNGTCIFTSTDAHRGNNPSFRGDIEILAYNLMMWATGTLPWMALESSPEKVFDAKQKFIAGLPGTLQNVLKNESSAVVGCIASMFDISMKTNYTDKVDMGKLKKLVTDAIQKTSSDGKKTPTRQKKLAEEDKNAVTPKRSTRRLAVKEESDNKDNDEVEVKPEKKATPRKRTTRKAVEVNNDSDDNEEQYENPKSKSSRTQTKSKRAKEEDVDDEEEIIIPKSSRSRSKVQLSGEGSDVTTPSSAASTSRSRSIRLGLTSSTASSNKVAKKIEQKYKRLSMNKSSLVPVTISVASDKSPTTSTPSSSSGLRSKRKSSEDVGEGITLKTQVLITPAIKKAKTKSGISSATKASPTELRRVPGVRNFPKGRRSMIIKETSAKYKERLASRQTKPTFDDSSCSSEV”, “not soluble”. For “MPPKKDPKGGKAPPSKKKEGSGGGKAKKKKWSKGKVRDKLNNMVLFDQATYDKLYKEVITYKLITPSVVSERLKVRASLAKAGLKELQAKGLVKCVVHHHGQVVYTRATKEADVIVE” the value was “soluble”; for “MPPRCYNSNSRRAELLERIQSDIPATVAQALSEDLGGEVNADRDLTAQLLPADKQATATIITREDGIFCGQRWLNEVFIQLGAQISIQWLVTDGDKLTANQTLCHLTGPARILLTGERTALNFLQTLSGVATEVSRYVVQLAGLKTQLLDTRKTLPGLRTALKYAVLCGGGNNHRLGLSDAFLIKENHIIAAGSIKEAVAKAFWIHADVPIEVEVESLDELQQALEAGADIVMLDNFTIPMMRDAVKMRDDHAKTQGSAQLEVSGNVTLETLRSYAETGIDFISVGALTKHITALDLSMRFQ”, “not soluble”; for “MPQLSRYSDEHVEQLLSELLSVLEKHKAPTDLSLMVLGNMVTNLINTSVAPAQRQAIANSFARALQSSISEDNAH”, “not soluble”. Turning to “MPQVAKTYESLAREAADNNLDYEEYLLCVLEQEVHQRENNRIQRGIRQAGFPVIKTIESFDFLAIPSLNKPRVLKLMQGEYIRRRENVILIGNSGVGKTHIATALGYEACRQGMKVKFYTAAGLINELLAAQQEYRLNKLEKQWLAPHLVILDELGYVPFSKIGAELLFQFCSSRYERGSLIITTNLEFPRWTEVLGDEQMTAALLDRLTHNAHILNINGESYRFKQALSKQANND”, the “soluble on expression in E. coli” value is given as “soluble”. For “MPRKKSAGPRSFGEPLTDDPDDAPELLDEFFRTGEIRVDGKIVRRGRPPLGTQPKSSVTLRLDADVLDAYRALGRGWQSQINADLRRVRKLKKA”, the “soluble on expression in E. coli” value is reported as “not soluble”.
